Experimental data: patent US20210253736A1 (published 2021)

T1: Cyno FAP
T1 chain: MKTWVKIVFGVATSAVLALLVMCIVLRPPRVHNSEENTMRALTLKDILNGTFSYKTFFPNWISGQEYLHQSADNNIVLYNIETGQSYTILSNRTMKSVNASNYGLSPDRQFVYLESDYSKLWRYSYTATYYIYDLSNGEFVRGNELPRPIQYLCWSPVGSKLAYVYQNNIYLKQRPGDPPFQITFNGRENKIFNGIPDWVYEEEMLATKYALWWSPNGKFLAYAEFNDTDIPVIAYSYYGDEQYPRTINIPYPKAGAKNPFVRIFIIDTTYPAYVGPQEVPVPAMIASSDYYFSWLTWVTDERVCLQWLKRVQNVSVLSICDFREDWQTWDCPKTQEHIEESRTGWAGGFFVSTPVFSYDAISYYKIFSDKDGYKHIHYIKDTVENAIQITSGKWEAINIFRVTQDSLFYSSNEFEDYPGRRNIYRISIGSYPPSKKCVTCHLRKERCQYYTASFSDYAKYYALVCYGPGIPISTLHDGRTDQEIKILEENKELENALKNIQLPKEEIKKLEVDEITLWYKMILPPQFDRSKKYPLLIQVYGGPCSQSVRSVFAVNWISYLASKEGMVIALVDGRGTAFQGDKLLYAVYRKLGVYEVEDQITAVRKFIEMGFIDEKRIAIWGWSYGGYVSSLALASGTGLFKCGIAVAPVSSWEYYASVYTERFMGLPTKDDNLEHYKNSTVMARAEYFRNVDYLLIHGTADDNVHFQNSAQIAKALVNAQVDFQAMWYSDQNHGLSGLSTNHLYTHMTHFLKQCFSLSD


Columns and labels:
[1] = target: T1, Cyno FAP; test: Octet
[2] = target: His-tagged human FAP (human, UniProt Q12884 26-760); test: Octet

Kd [1] [nM]	Kd [2] [nM]	Binder
0.0264	0.00482	XENP23930 (29B11, bottle-opener) (antibody) chain 1: EVQLLESGGGLVQPGGSLRLSCAASGFTFSSYAMSWVRQAPGKGLEWVSAIIGSGGITYYADSVKGRFTISRDNSKNTLYLQMNSLRAEDTAVYYCAKGWFGGFNYWGQGTLVTVSSASTKGPSVFPLAPSSKSTSGGTAALGCLVKDYFPEPVTVSWNSGALTSGVHTFPAVLQSSGLYSLSSVVTVPSSSLGTQTYICNVNHKPSDTKVDKKVEPKSCDKTHTCPPCPAPPVAGPSVFLFPPKPKDTLMISRTPEVTCVVVDVKHEDPEVKFNWYVDGVEVHNAKTKPREEEYNSTYRVVSVLTVLHQDWLNGKEYKCKVSNKALPAPIEKTISKAKGQPREPQVYTLPPSREEMTKNQVSLTCDVSGFYPSDIAVEWESDGQPENNYKTTPPVLDSDGSFFLYSKLTVDKSRWEQGDVFSCSVMHEALHNHYTQKSLSLSPGK chain 2: not shown chain 3: EIVLTQSPGTLSLSPGERATLSCRASQSVTSSYLAWYQQKPGQAPRLLINVGSRRATGIPDRFSGSGSGTDFTLTISRLEPEDFAVYYCQQGIMLPPTFGQGTKVEIKRTVAAPSVFIFPPSDEQLKSGTASVVCLLNNFYPREAKVQWKVDNALQSGNSQESVTEQDSKDSTYSLSSTLTLSKADYEKHKVYACEVTHQGLSSPVTKSFNRGEC
3.16	5.46	XENP23934 (3F2, bottle-opener) (antibody) chain 1: not shown chain 2: not shown chain 3: EIVLTQSPGTLSLSPGERATLSCRASQSVTSSYLAWYQQKPGQAPRLLINVGSRRATGIPDRFSGSGSGTDFTLTISRLEPEDFAVYYCQQGIMLPPTFGQGTKVEIKRTVAAPSVFIFPPSDEQLKSGTASVVCLLNNFYPREAKVQWKVDNALQSGNSQESVTEQDSKDSTYSLSSTLTLSKADYEKHKVYACEVTHQGLSSPVTKSFNRGEC
